Laboratory results taken from publication PMC4150770.

Experiments:
[1] = molecular target: 43S·mRNA preinitiation complex assembled with eIF5-M18V (yeast) (UniProt P32911); assay: fluorescence polarisation; dissociation kinetics by fluorescence anisotropy, 43S·mRNA(AUG) complexes: 15 nM eIF1A-Fl, 1 μM eIF1, 1 μM eIF5 variant, 120 nM 40S, 10 μM mRNA(AUG), 300 nM eIF2, 150 nM Met-tRNAi, 1 mM GDPNP·Mg2+; chase with 15 μM unlabeled eIF1A; 30 mM HEPES pH 7.4, 100 mM potassium acetate, 3 mM Mg(OAc)2, 2 mM DTT; double exponential fit (k1 fast phase, open state; k2 slow phase, closed state)
[2] = molecular target: 43S·mRNA preinitiation complex assembled with eIF5-G31R,M18V (yeast) (UniProt P32911); assay: as above
[3] = molecular target: 43S·mRNA preinitiation complex assembled with eIF5-G31R (yeast) (UniProt P32911); assay: as above
[4] = molecular target: 43S·mRNA preinitiation complex assembled with eIF5-G31R,G62S (yeast) (UniProt P32911); assay: as above
[5] = molecular target: 43S·mRNA preinitiation complex assembled with WT eIF5 (40S subunits, eIF1, eIF5, eIF2·GDPNP·Met-tRNAi ternary complex, model mRNA) (yeast) (UniProt P32911); assay: as above
[6] = molecular target: 43S·mRNA preinitiation complex assembled with eIF5-G62S (yeast) (UniProt P32911); assay: as above
[7] = molecular target: 43S·mRNA preinitiation complex assembled with eIF5-M18V (yeast) (UniProt P32911); assay: fluorescence polarisation; dissociation kinetics by fluorescence anisotropy, 43S·mRNA(UUG) complexes: 15 nM eIF1A-Fl, 1 μM eIF1, 1 μM eIF5 variant, 120 nM 40S, 10 μM mRNA(UUG), 300 nM eIF2, 150 nM Met-tRNAi, 1 mM GDPNP·Mg2+; chase with 15 μM unlabeled eIF1A; 30 mM HEPES pH 7.4, 100 mM potassium acetate, 3 mM Mg(OAc)2, 2 mM DTT; double exponential fit (k1 fast phase, open state; k2 slow phase, closed state)
[8] = molecular target: 43S·mRNA preinitiation complex assembled with eIF5-G31R,M18V (yeast) (UniProt P32911); assay: as above
[9] = molecular target: 43S·mRNA preinitiation complex assembled with eIF5-G31R (yeast) (UniProt P32911); assay: as above
[10] = molecular target: 43S·mRNA preinitiation complex assembled with eIF5-G31R,G62S (yeast) (UniProt P32911); assay: as above
[11] = molecular target: 43S·mRNA preinitiation complex assembled with WT eIF5 (40S subunits, eIF1, eIF5, eIF2·GDPNP·Met-tRNAi ternary complex, model mRNA) (yeast) (UniProt P32911); assay: as above
[12] = molecular target: 43S·mRNA preinitiation complex assembled with eIF5-G62S (yeast) (UniProt P32911); assay: as above

k1 (dissociation rate constant, fast phase, open state) [1]: 0.003 s⁻¹
k2 (dissociation rate constant, slow phase, closed state) [1]: 0.0003 s⁻¹
k1 (dissociation rate constant, fast phase, open state) [2]: 0.025 s⁻¹
k2 (dissociation rate constant, slow phase, closed state) [2]: 0.002 s⁻¹
k1 (dissociation rate constant, fast phase, open state) [3]: 0.016 s⁻¹
k2 (dissociation rate constant, slow phase, closed state) [3]: 0.005 s⁻¹
k1 (dissociation rate constant, fast phase, open state) [4]: 0.018 s⁻¹
k2 (dissociation rate constant, slow phase, closed state) [4]: 0.003 s⁻¹
k1 (dissociation rate constant, fast phase, open state) [5]: 0.007 s⁻¹
k2 (dissociation rate constant, slow phase, closed state) [5]: 0.0004 s⁻¹
k1 (dissociation rate constant, fast phase, open state) [6]: 0.018 s⁻¹
k2 (dissociation rate constant, slow phase, closed state) [6]: 0.003 s⁻¹
k1 (dissociation rate constant, fast phase, open state) [7]: 0.011 s⁻¹
k2 (dissociation rate constant, slow phase, closed state) [7]: 0.0012 s⁻¹
k1 (dissociation rate constant, fast phase, open state) [8]: 0.018 s⁻¹
k2 (dissociation rate constant, slow phase, closed state) [8]: 0.0003 s⁻¹
k1 (dissociation rate constant, fast phase, open state) [9]: 0.008 s⁻¹
k2 (dissociation rate constant, slow phase, closed state) [9]: 0.0005 s⁻¹
k1 (dissociation rate constant, fast phase, open state) [10]: 0.026 s⁻¹
k2 (dissociation rate constant, slow phase, closed state) [10]: 0.004 s⁻¹
k1 (dissociation rate constant, fast phase, open state) [11]: 0.011 s⁻¹
k2 (dissociation rate constant, slow phase, closed state) [11]: 0.0011 s⁻¹
k1 (dissociation rate constant, fast phase, open state) [12]: 0.025 s⁻¹
k2 (dissociation rate constant, slow phase, closed state) [12]: 0.002 s⁻¹
Substance: eIF1A labeled at its C-terminus with fluorescein (from UniProt P38912 1-153) (natural protein)
